From US20130005646A1 (Novo Nordisk, published 2013)
Starred links: 1 amine or outer side, 2 acyl side, 3 side chain; linkers in the order of their positions; H or OH if unused. Positions of bridges follow the written chain, without caps; N, C: chain ends. *: point of attachment. C20 diacid = O=C(O)CCCCCCCCCCCCCCCCCCC(=O)*; γGlu = O=C(O)[C@H](CCC(=O)[*:2])N[*:1]

T1: human amylin 3(a) receptor (human calcitonin receptor + RAMP-3) (human, UniProt P30988 25-474; O60896 24-148)
T1 sequence (looked up) 1: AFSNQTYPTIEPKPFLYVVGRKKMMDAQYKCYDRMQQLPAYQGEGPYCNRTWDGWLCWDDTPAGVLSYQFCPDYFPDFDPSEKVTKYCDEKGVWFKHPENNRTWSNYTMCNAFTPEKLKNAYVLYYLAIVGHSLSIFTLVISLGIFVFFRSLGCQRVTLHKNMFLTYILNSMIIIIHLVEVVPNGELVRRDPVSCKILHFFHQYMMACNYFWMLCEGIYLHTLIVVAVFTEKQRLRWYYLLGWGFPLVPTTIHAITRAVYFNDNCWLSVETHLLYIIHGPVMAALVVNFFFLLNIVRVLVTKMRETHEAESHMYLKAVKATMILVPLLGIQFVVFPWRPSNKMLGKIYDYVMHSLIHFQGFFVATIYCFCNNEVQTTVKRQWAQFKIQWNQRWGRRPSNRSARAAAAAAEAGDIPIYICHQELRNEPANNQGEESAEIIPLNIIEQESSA
T1 sequence (looked up) 2: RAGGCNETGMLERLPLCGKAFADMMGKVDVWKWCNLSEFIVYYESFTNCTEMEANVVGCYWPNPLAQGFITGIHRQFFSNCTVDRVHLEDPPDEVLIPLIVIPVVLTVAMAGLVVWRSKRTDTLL

T2: human calcitonin (a) receptor (human, UniProt P30988 25-474)
T2 sequence (looked up): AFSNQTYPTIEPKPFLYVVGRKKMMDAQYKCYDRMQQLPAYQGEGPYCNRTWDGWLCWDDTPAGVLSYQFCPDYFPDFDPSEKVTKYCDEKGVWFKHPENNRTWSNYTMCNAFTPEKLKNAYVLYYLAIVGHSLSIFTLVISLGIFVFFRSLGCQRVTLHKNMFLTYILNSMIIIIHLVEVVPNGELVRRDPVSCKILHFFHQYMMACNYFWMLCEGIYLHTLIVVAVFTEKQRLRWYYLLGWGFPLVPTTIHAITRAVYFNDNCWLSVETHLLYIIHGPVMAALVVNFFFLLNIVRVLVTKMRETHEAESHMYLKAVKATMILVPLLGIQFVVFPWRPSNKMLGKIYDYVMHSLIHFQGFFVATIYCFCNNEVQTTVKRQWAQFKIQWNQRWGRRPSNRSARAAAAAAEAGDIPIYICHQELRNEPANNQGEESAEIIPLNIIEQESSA


Experiments:
[1] = molecular target: T1, human amylin 3(a) receptor (human …); test: cell-based or functional assay
[2] = molecular target: T2, human calcitonin (a) receptor; test: cell-based or functional assay

| Amylin receptor human EC50 [1] | CTa receptor human EC50 [2] | Binder |
| --- | --- | --- |
| 0.045 nM | 0.0875 nM | {C20 diacid-γGlu}-GRCNTATCATQRLANFLVHSSNNFGPILPPTNVGSHTY-NH2 (disulfide 3-8; SMILES CC[C@H](C)[C@H](NC(=O)[C@@H]1CCCN1C(=O)CNC(=O)[C@H](Cc1ccccc1)NC(=O)[C@H](CC(N)=O)NC(=O)[C@H](CC(N)=O)NC(=O)[C@H](CO)NC(=O)[C@H](CO)NC(=O)[C@H](Cc1c[nH]cn1)NC(=O)[C@@H](NC(=O)[C@H](CC(C)C)NC(=O)[C@H](Cc1ccccc1)NC(=O)[C@H](CC(N)=O)NC(=O)[C@H](C)NC(=O)[C@H](CC(C)C)NC(=O)[C@H](CCCNC(=N)N)NC(=O)[C@H](CCC(N)=O)NC(=O)[C@@H](NC(=O)[C@H](C)NC(=O)[C@@H]1CSSC[C@H](NC(=O)[C@H](CCCNC(=N)N)NC(=O)CNC(=O)CC[C@H](NC(=O)CCCCCCCCCCCCCCCCCCC(=O)O)C(=O)O)C(=O)N[C@@H](CC(N)=O)C(=O)N[C@@H]([C@@H](C)O)C(=O)N[C@@H](C)C(=O)N[C@@H]([C@@H](C)O)C(=O)N1)[C@@H](C)O)C(C)C)C(=O)N[C@@H](CC(C)C)C(=O)N1CCC[C@H]1C(=O)N1CCC[C@H]1C(=O)N[C@H](C(=O)N[C@@H](CC(N)=O)C(=O)N[C@H](C(=O)NCC(=O)N[C@@H](CO)C(=O)N[C@@H](Cc1c[nH]cn1)C(=O)N[C@H](C(=O)N[C@@H](Cc1ccc(O)cc1)C(N)=O)[C@@H](C)O)C(C)C)[C@@H](C)O) [N-alpha-[(S)-4-Carboxy-4-(19-carboxynonadecanoylamino)butyryl]-Gly-[Arg1,His35]-pramlintide] |
| 0.0795 nM | 0.106 nM | {C20 diacid-γGlu}-CNTATCATQRLAEFLHHSSNNFGPILPPTNVGSNTP-NH2 (disulfide 1-6; SMILES CC[C@H](C)[C@H](NC(=O)[C@@H]1CCCN1C(=O)CNC(=O)[C@H](Cc1ccccc1)NC(=O)[C@H](CC(N)=O)NC(=O)[C@H](CC(N)=O)NC(=O)[C@H](CO)NC(=O)[C@H](CO)NC(=O)[C@H](Cc1c[nH]cn1)NC(=O)[C@H](Cc1c[nH]cn1)NC(=O)[C@H](CC(C)C)NC(=O)[C@H](Cc1ccccc1)NC(=O)[C@H](CCC(=O)O)NC(=O)[C@H](C)NC(=O)[C@H](CC(C)C)NC(=O)[C@H](CCCNC(=N)N)NC(=O)[C@H](CCC(N)=O)NC(=O)[C@@H](NC(=O)[C@H](C)NC(=O)[C@@H]1CSSC[C@H](NC(=O)CC[C@H](NC(=O)CCCCCCCCCCCCCCCCCCC(=O)O)C(=O)O)C(=O)N[C@@H](CC(N)=O)C(=O)N[C@@H]([C@@H](C)O)C(=O)N[C@@H](C)C(=O)N[C@@H]([C@@H](C)O)C(=O)N1)[C@@H](C)O)C(=O)N[C@@H](CC(C)C)C(=O)N1CCC[C@H]1C(=O)N1CCC[C@H]1C(=O)N[C@H](C(=O)N[C@@H](CC(N)=O)C(=O)N[C@H](C(=O)NCC(=O)N[C@@H](CO)C(=O)N[C@@H](CC(N)=O)C(=O)N[C@H](C(=O)N1CCC[C@H]1C(N)=O)[C@@H](C)O)C(C)C)[C@@H](C)O) [N-alpha-[(S)-4-Carboxy-4-(19-carboxynonadecanoylamino)butyryl]-[des1,Glu14,His17,Pro37]-pramlintide] |

Further lines, the binder ahead of its results:

| Binder | Amylin receptor human EC50 [1] | CTa receptor human EC50 [2] |
| --- | --- | --- |
| {C20 diacid-γGlu}-GRCNTATCATQRLAEFLHHSSNNFGPILPPTNVGSHTY-NH2 (disulfide 3-8; SMILES CC[C@H](C)[C@H](NC(=O)[C@@H]1CCCN1C(=O)CNC(=O)[C@H](Cc1ccccc1)NC(=O)[C@H](CC(N)=O)NC(=O)[C@H](CC(N)=O)NC(=O)[C@H](CO)NC(=O)[C@H](CO)NC(=O)[C@H](Cc1c[nH]cn1)NC(=O)[C@H](Cc1c[nH]cn1)NC(=O)[C@H](CC(C)C)NC(=O)[C@H](Cc1ccccc1)NC(=O)[C@H](CCC(=O)O)NC(=O)[C@H](C)NC(=O)[C@H](CC(C)C)NC(=O)[C@H](CCCNC(=N)N)NC(=O)[C@H](CCC(N)=O)NC(=O)[C@@H](NC(=O)[C@H](C)NC(=O)[C@@H]1CSSC[C@H](NC(=O)[C@H](CCCNC(=N)N)NC(=O)CNC(=O)CC[C@H](NC(=O)CCCCCCCCCCCCCCCCCCC(=O)O)C(=O)O)C(=O)N[C@@H](CC(N)=O)C(=O)N[C@@H]([C@@H](C)O)C(=O)N[C@@H](C)C(=O)N[C@@H]([C@@H](C)O)C(=O)N1)[C@@H](C)O)C(=O)N[C@@H](CC(C)C)C(=O)N1CCC[C@H]1C(=O)N1CCC[C@H]1C(=O)N[C@H](C(=O)N[C@@H](CC(N)=O)C(=O)N[C@H](C(=O)NCC(=O)N[C@@H](CO)C(=O)N[C@@H](Cc1c[nH]cn1)C(=O)N[C@H](C(=O)N[C@@H](Cc1ccc(O)cc1)C(N)=O)[C@@H](C)O)C(C)C)[C@@H](C)O) | 0.0675 nM | 0.0895 nM |
| {C20 diacid-γGlu}-GRCNTATCATQRLAEFLVHSSNNFGPILPPTNVGSNTP-NH2 (disulfide 3-8; SMILES CC[C@H](C)[C@H](NC(=O)[C@@H]1CCCN1C(=O)CNC(=O)[C@H](Cc1ccccc1)NC(=O)[C@H](CC(N)=O)NC(=O)[C@H](CC(N)=O)NC(=O)[C@H](CO)NC(=O)[C@H](CO)NC(=O)[C@H](Cc1c[nH]cn1)NC(=O)[C@@H](NC(=O)[C@H](CC(C)C)NC(=O)[C@H](Cc1ccccc1)NC(=O)[C@H](CCC(=O)O)NC(=O)[C@H](C)NC(=O)[C@H](CC(C)C)NC(=O)[C@H](CCCNC(=N)N)NC(=O)[C@H](CCC(N)=O)NC(=O)[C@@H](NC(=O)[C@H](C)NC(=O)[C@@H]1CSSC[C@H](NC(=O)[C@H](CCCNC(=N)N)NC(=O)CNC(=O)CC[C@H](NC(=O)CCCCCCCCCCCCCCCCCCC(=O)O)C(=O)O)C(=O)N[C@@H](CC(N)=O)C(=O)N[C@@H]([C@@H](C)O)C(=O)N[C@@H](C)C(=O)N[C@@H]([C@@H](C)O)C(=O)N1)[C@@H](C)O)C(C)C)C(=O)N[C@@H](CC(C)C)C(=O)N1CCC[C@H]1C(=O)N1CCC[C@H]1C(=O)N[C@H](C(=O)N[C@@H](CC(N)=O)C(=O)N[C@H](C(=O)NCC(=O)N[C@@H](CO)C(=O)N[C@@H](CC(N)=O)C(=O)N[C@H](C(=O)N1CCC[C@H]1C(N)=O)[C@@H](C)O)C(C)C)[C@@H](C)O) [N-alpha-[(S)-4-Carboxy-4-(19-carboxynonadecanoylamino)butyryl]-Gly-[Arg1,Glu14,Pro37]-pramlintide] | 0.0495 nM | 0.0505 nM |
| {C20 diacid-γGlu}-GRCNTATCATQRLANFLVHSSNNFGPILPPTNVGSNTP-NH2 (disulfide 3-8; SMILES CC[C@H](C)[C@H](NC(=O)[C@@H]1CCCN1C(=O)CNC(=O)[C@H](Cc1ccccc1)NC(=O)[C@H](CC(N)=O)NC(=O)[C@H](CC(N)=O)NC(=O)[C@H](CO)NC(=O)[C@H](CO)NC(=O)[C@H](Cc1c[nH]cn1)NC(=O)[C@@H](NC(=O)[C@H](CC(C)C)NC(=O)[C@H](Cc1ccccc1)NC(=O)[C@H](CC(N)=O)NC(=O)[C@H](C)NC(=O)[C@H](CC(C)C)NC(=O)[C@H](CCCNC(=N)N)NC(=O)[C@H](CCC(N)=O)NC(=O)[C@@H](NC(=O)[C@H](C)NC(=O)[C@@H]1CSSC[C@H](NC(=O)[C@H](CCCNC(=N)N)NC(=O)CNC(=O)CC[C@H](NC(=O)CCCCCCCCCCCCCCCCCCC(=O)O)C(=O)O)C(=O)N[C@@H](CC(N)=O)C(=O)N[C@@H]([C@@H](C)O)C(=O)N[C@@H](C)C(=O)N[C@@H]([C@@H](C)O)C(=O)N1)[C@@H](C)O)C(C)C)C(=O)N[C@@H](CC(C)C)C(=O)N1CCC[C@H]1C(=O)N1CCC[C@H]1C(=O)N[C@H](C(=O)N[C@@H](CC(N)=O)C(=O)N[C@H](C(=O)NCC(=O)N[C@@H](CO)C(=O)N[C@@H](CC(N)=O)C(=O)N[C@H](C(=O)N1CCC[C@H]1C(N)=O)[C@@H](C)O)C(C)C)[C@@H](C)O) [N-alpha-[(S)-4-Carboxy-4-(19-carboxynonadecanoylamino)butyryl]-Gly-[Arg1,Pro37]-pramlintide] | 0.0525 nM | 0.075 nM |
